Reference: the supplement of paper PMC10567573

B1: PLAGL1 (parent)
chain: TKEKKHQCDHCERCFYTRKDVRRH

Variants of: B1
Experiment: protein stability index of a GFP-peptide fusion (GPS, HEK-293T) (PSI 1-6); higher = more stable
Conditions: c terminus: a fixed tail appended
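Also: lentivirally expressed fusions sorted by FACS into six bins by GFP to DsRed ratio, PSI derived from sequencing read proportions per bin multiplied by bin number.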

Row | Variant | protein stability index
1 | TKEKKHQCDHCERCFYTRKGVRRH [D20G] | 3.21
2 | TKEKKHQCDHCERCFYTRKVVRRH [D20V] | 3.71
3 | TKEKKHQCDHCERCFYTRKSVRRH [D20S] | 3.22
4 | TKEKKHQCDHCERCFYTRKEVRRH [D20E] | 3.96
5 | TKEKKHQCDHCERCFYTRKQVRRH [D20Q] | 3.43
6 | TKEKKHQCDHCERCFYTRKAVRRH [D20A] | 3.61
7 | TKEKKHQCDHCERCFYTRKTVRRH [D20T] | 2.96
8 | TKEKKHQCDHCERCFYTRKCVRRH [D20C] | 3.02
9 | TKEKKHQCDHCERCFYTRKYVRRH [D20Y] | 3.28
10 | TKEKKHQCDHCERCFYTRKRVRRH [D20R] | 3.84
11 | TKEKKHQCDHCERCFYTRKWVRRH [D20W] | 3.03
12 | TKEKKHQCDHCERCFYTRKHVRRH [D20H] | 3.43
13 | TKEKKHQCDHCERCFYTRKKVRRH [D20K] | 3.29
14 | TKEKKHQCDHCERCFYTRKIVRRH [D20I] | 2.65
15 | TKEKKHQCDHCERCFYTRKNVRRH [D20N] | 3.37
16 | TKEKKHQCDHCERCFYTRKMVRRH [D20M] | 3.44
17 | TKEKKHQCDHCERCFYTRKPVRRH [D20P] | 3.1
18 | TKEKKHQCDHCERCFYTRKFVRRH [D20F] | 3.14
19 | TKEKKHQCDHCERCFYTRKLVRRH [D20L] | 3.14
20 | TKEKKHQCDHCERCFYTRKDVYRH [R22Y] | 3.69
21 | TKEKKHQCDHCERCFYTRKDVNRH [R22N] | 4.04
22 | TKEKKHQCDHCERCFYTRKDVSRH [R22S] | 3.71
23 | TKEKKHQCDHCERCFYTRKDVVRH [R22V] | 3.76
24 | TKEKKHQCDHCERCFYTRKDVLRH [R22L] | 3.84

Row | Variant | protein stability index
25 | TKEKKHQCDHCERCFYTRKDVCRH [R22C] | 4.07
26 | TKEKKHQCDHCERCFYTRKDVMRH [R22M] | 3.65
27 | TKEKKHQCDHCERCFYTRKDVDRH [R22D] | 4.31
28 | TKEKKHQCDHCERCFYTRKDVWRH [R22W] | 3.27
29 | TKEKKHQCDHCERCFYTRKDVPRH [R22P] | 3.62
30 | TKEKKHQCDHCERCFYTRKDVTRH [R22T] | 4.04
31 | TKEKKHQCDHCERCFYTRKDVARH [R22A] | 3.54
32 | TKEKKHQCDHCERCFYTRKDVKRH [R22K] | 3.76
33 | TKEKKHQCDHCERCFYTRKDVFRH [R22F] | 3.51
34 | TKEKKHQCDHCERCFYTRKDVERH [R22E] | 4.73
35 | TKEKKHQCDHCERCFYTRKDVQRH [R22Q] | 3.51
36 | TKEKKHQCDHCERCFYTRKDVHRH [R22H] | 3.96
37 | TKEKKHQCDHCERCFYTRKDVIRH [R22I] | 3.48
38 | TKEKKHQCDHCERCFYTRKDVGRH [R22G] | 3.61
39 | TKEKKHQCDHCERCFYTRIDVRRH [K19I] | 2.52
40 | TKEKKHQCDHCERCFYTREDVRRH [K19E] | 4.03
41 | TKEKKHQCDHCERCFYTRCDVRRH [K19C] | 3.22
42 | TKEKKHQCDHCERCFYTRTDVRRH [K19T] | 3.4
43 | TKEKKHQCDHCERCFYTRNDVRRH [K19N] | 3.3
44 | TKEKKHQCDHCERCFYTRADVRRH [K19A] | 3.66
45 | TKEKKHQCDHCERCFYTRHDVRRH [K19H] | 3.55
46 | TKEKKHQCDHCERCFYTRQDVRRH [K19Q] | 3.89
47 | TKEKKHQCDHCERCFYTRGDVRRH [K19G] | 3.52
48 | TKEKKHQCDHCERCFYTRFDVRRH [K19F] | 3.05

Row | Variant | protein stability index
49 | TKEKKHQCDHCERCFYTRMDVRRH [K19M] | 3.06
50 | TKEKKHQCDHCERCFYTRRDVRRH [K19R] | 4.12
51 | TKEKKHQCDHCERCFYTRWDVRRH [K19W] | 3.13
52 | TKEKKHQCDHCERCFYTRPDVRRH [K19P] | 3.33
53 | TKEKKHQCDHCERCFYTRYDVRRH [K19Y] | 3.25
54 | TKEKKHQCDHCERCFYTRDDVRRH [K19D] | 3.39
55 | TKEKKHQCDHCERCFYTRLDVRRH [K19L] | 2.9
56 | TKEKKHQCDHCERCFYTRSDVRRH [K19S] | 3.17
57 | TKEKKHQCDHCERCFYTRVDVRRH [K19V] | 2.95
58 | TKEKKHQCDHCERCFYTQKDVRRH [R18Q] | 3.38
59 | TKEKKHQCDHCERCFYTTKDVRRH [R18T] | 3.29
60 | TKEKKHQCDHCERCFYTNKDVRRH [R18N] | 3.58
61 | TKEKKHQCDHCERCFYTYKDVRRH [R18Y] | 3.2
62 | TKEKKHQCDHCERCFYTVKDVRRH [R18V] | 3.27
63 | TKEKKHQCDHCERCFYTPKDVRRH [R18P] | 3.13
64 | TKEKKHQCDHCERCFYTSKDVRRH [R18S] | 3.5
65 | TKEKKHQCDHCERCFYTWKDVRRH [R18W] | 3.27
66 | TKEKKHQCDHCERCFYTRKDVRHH [R23H] | 3.85
67 | TKEKKHQCDHCERCFYTRKDVRCH [R23C] | 3.49
68 | TKEKKHQCDHCERCFYTRKDVRQH [R23Q] | 3.84
69 | TKEKKHQCDHCERCFYTRKDVRLH [R23L] | 3.92
70 | TKEKKHQCDHCERCFYTRKDVRKH [R23K] | 4.27
71 | TKEKKHQCDHCERCFYTRKDVRMH [R23M] | 3.79
72 | TKEKKHQCDHCERCFYTRKDVRPH [R23P] | 4.04

Row | Variant | protein stability index
73 | TKEKKHQCDHCERCFYTRKDVRVH [R23V] | 3.08
74 | TKEKKHQCDHCERCFYTRKDVRIH [R23I] | 3.67
75 | TKEKKHQCDHCERCFYTRKDVRWH [R23W] | 3.08
76 | TKEKKHQCDHCERCFYTRKDVRDH [R23D] | 4.49
77 | TKEKKHQCDHCERCFYTRKDVRFH [R23F] | 3.33
78 | TKEKKHQCDHCERCFYTRKDVRSH [R23S] | 3.7
79 | TKEKKHQCDHCERCFYTRKDVRNH [R23N] | 4.01
80 | TKEKKHQCDHCERCFYTRKDVRYH [R23Y] | 3.53
81 | TKEKKHQCDHCERCFYTRKDVRAH [R23A] | 4.13
82 | TKEKKHQCDHCERCFYTRKDVREH [R23E] | 4.26
83 | TKEKKHQCDHCERCFYTRKDVRTH [R23T] | 3.71
84 | TKEKKHQCDHCERCFYTRKDVRGH [R23G] | 4.31
85 | TKEKKHQCDHCERCFYTRKDVRRK [H24K] | 3.62
86 | TKEKKHQCDHCERCFYTRKDVRRG [H24G] | 3.52
87 | TKEKKHQCDHCERCFYTRKDVRRC [H24C] | 3.31
88 | TKEKKHQCDHCERCFYTRKDVRRM [H24M] | 2.88
89 | TKEKKHQCDHCERCFYTRKDVRRS [H24S] | 3.27
90 | TKEKKHQCDHCERCFYTRKDVRRQ [H24Q] | 3.58
91 | TKEKKHQCDHCERCFYTRKDVRRY [H24Y] | 2.79
92 | TKEKKHQCDHCERCFYTRKDVRRT [H24T] | 3.63
93 | TKEKKHQCDHCERCFYTRKDVRRF [H24F] | 3.06
94 | TKEKKHQCDHCERCFYTRKDVRRI [H24I] | 3.24
95 | TKEKKHQCDHCERCFYTRKDVRRP [H24P] | 3.24
